# T1: prodystroglycan (DAG1_(28-340)) (Homo sapiens, UniProt Q14118 28-340, R311A | R312A)
# T1 sequence: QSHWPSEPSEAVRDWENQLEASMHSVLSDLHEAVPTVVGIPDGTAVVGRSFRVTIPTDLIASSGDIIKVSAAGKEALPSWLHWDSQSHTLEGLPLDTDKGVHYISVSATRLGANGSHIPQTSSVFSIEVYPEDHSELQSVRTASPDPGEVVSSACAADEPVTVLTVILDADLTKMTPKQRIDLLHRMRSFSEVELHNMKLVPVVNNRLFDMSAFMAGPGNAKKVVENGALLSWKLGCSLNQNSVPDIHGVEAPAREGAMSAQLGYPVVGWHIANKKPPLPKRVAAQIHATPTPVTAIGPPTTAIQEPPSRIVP
# Assays:
# [1] = biological target: T1, prodystroglycan (DAG1_(28-340)); experiment: MST
# [2] = biological target: the molecule itself; experiment: SEC-MALS; Superdex 200 Increase 10/300 GL, 20 mM HEPES pH 7.4, 150 mM NaCl, samples 4-8 mg/mL, on line with SAXS
binder,measurement,setting,value
"LARGE1dTM (enzyme, N-glycans; NHS-red label in the microscale thermophoresis experiments, LARGE1 lacking the transmembrane domain; soluble secreted construct; Homodimer by cryo-EM and SEC-MALS; also called Like-acetylglucosaminyltransferase-1; apo-LARGE1dTM; source: HEK293-F, stably transfected, secreted, purified (TALON resin)) FEDGKPVSLSPLESQAHSPRYTASSQRERESLEVRMREVEEENRALRRQLSLAQGRAPSHRRGNHSKTYSMEEGTGDSENLRAGIVAGNSSECGQQPVVEKCETIHVAIVCAGYNASRDVVTLVKSVLFHRRNPLHFHLIADSIAEQILATLFQTWMVPAVRVDFYNADELKSEVSWIPNKHYSGIYGLMKLVLTKTLPANLERVIVLDTDITFATDIAELWAVFHKFKGQQVLGLVENQSDWYLGNLWKNHRPWPALGRGYNTGVILLLLDKLRKMKWEQMWRLTAERELMGMLSTSLADQDIFNAVIKQNPFLVYQLPCFWNVQLSDHTRSEQCYRDVSDLKVIHWNSPKKLRVKNKHVEFFRNLYLTFLEYDGNLLRRELFGCPSEADVNSENLQKQLSELDEDDLCYEFRRERFTVHRTHLYFLHYEYEPAADSTDVTLVAQLSMDRLQMLEAICKHWEGPISLALYLSDAEAQQFLRYAQGSEVLMSRHNVGYHIVYKEGQFYPVNLLRNVAMKHISTPYMFLSDIDFLPMYGLYEYLRKSVIQLDLANTKKAMIVPAFETLRYRLSFPKSKAELLSMLDMGTLFTFRYHVWTKGHAPTNFAKWRTATTPYRVEWEADFEPYVVVRRDCPEYDRRFVGFGWNKVAHIMELDVQEYEFIVLPNAYMIHMPHAPSFDITKFRSNKQYRICLKTLKEEFQQDMSRRYGFAALKYLTAENNS",Kd,[1],~180 nM
same,stoichiometry N,[2],2
